± gives the half width of the 95% confidence interval.
Columns and labels:
[1] = folding stability dG unfold from trypsin proteolysis; higher = more stable
How it was run: (§1)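 Unfolding free energy was derived, per protease or combined, against a sequence-predicted unfolded-state K50 and a shared folded-state K50, starting from K50 inferred by Bayesian fitting of sequencing counts. Digestion with trypsin and chymotrypsin was carried out on designed mini-proteins under 80 residues without cysteine in a PA-tagged cDNA display construct. Only designs with AlphaFold2 dimer inter-PAE above 15 were kept.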

[2] = folding stability dG unfold from chymotrypsin proteolysis; higher = more stable
How it was run: as §1

[3] = folding stability dG unfold (combined trypsin and chymotrypsin); higher = more stable
How it was run: as §1

| Sequence | folding stability dG unfold [1] [kJ/mol] | folding stability dG unfold [2] [kJ/mol] | folding stability dG unfold [3] [kJ/mol] |
| --- | --- | --- | --- |
| SAGGIIIYPKDPDGKQRPIPPEVIRRIVDTIARRYGFEIKIDIEIEPTNDYWVITIPIEIEGLPPEQLSAGG [r13_790_TrROS] | 7.82 ± 0.251 | 9.32 ± 0.285 | 9.13 ± 0.36 |
| SAGGIKEFADTLQDHGGTVTVEPVNNGSLKVSIQHRDPEDGRMYRMEIEIPPENNKLEIDDWEPYPNSAGGS [r16_613_TrROS] | 0.297 ± 0.628 | 1.3 ± 1.13 | 0.413 ± 0.879 |
| SAGGIKELAKKGYEIKEVTVRVRNKDGSVYEITEIKVVDGELYIKVKNKKTGKIEEKKIPLKDIEIVPSAGG [r13_340_TrROS_Hall] | 4.96 ± 0.188 | 8.85 ± 0.121 | 7.65 ± 0.377 |
| SAGGIKIEIMFLMPLKDVRSIIDEIAKMPGIKITDVEVDIIPFENGTVMFRVTFEIEIYDPENGEPISAGGS [r8_374_TrROS] | 16.5 ± 0.879 | 20 ± 0.753 | 17.8 ± 1.51 |
| SAGGIPPNDPEYQQKMQLLKEIQNFAKEQQQNGRDVKIETIEINPEDGRVTITVQYPNGKKVTITIPSAGGS [r8_277_TrROS] | 7.48 ± 0.238 | 6.52 ± 0.201 | 6.92 ± 0.268 |
| SAGGIWIPIDRIREALKDGMPLDEIVDKLRKHGFPIDRITGIEPSPNSWTIEIEFPEQGMPIEIQISSAGGS [r8_179_TrROS] | 8.1 ± 0.218 | 6.93 ± 0.146 | 7.96 ± 0.356 |
| SAGGIWIPVPNADWAVDFIIEFIDQFGPGAKIDKITVYNGGKEREITPGEPPKIPPGSWFEIDLEPKSAGGS [r16_267_TrROS] | 2.92 ± 0.155 | 4.8 ± 0.356 | 4.12 ± 0.314 |
| SAGGKDGKPKPKVEPEITVQFYIPLPPDDLTPEEIAQWMSDHFGFPFTNVEIERHPEDNYYRVSFTIRSAGG [r13_457_TrROS] | 7.8 ± 0.268 | 10.7 ± 0.418 | 10 ± 0.36 |
| SAGGKDVKPIPVRIKIWYPDDGKPIHEIPVSAYQMDDKIHITFESPELLQFAKELAQKKGFKVEIEPSAGGS [r16_327_TrROS] | 2.15 ± 0.197 | 3.14 ± 0.502 | 2.91 ± 0.46 |
| SAGGKEKKKEKEEKKKKPKPKFIKIKLSPEELLKLAKELPNIDRIFVEVDGKLYEFDAKTGKIVEVDSAGGS [r16_214_TrROS_Hall] | 5.36 ± 0.418 | 10 ± 0.335 | 8.25 ± 0.753 |
| SAGGKEKKPKVELKITSISEFEGGLVIEGEATTPTKKIKVLAVYDPSTGKITVWRETPEGIEPLAEFGSAGG [r13_445_TrMRF] | 7.35 ± 0.247 | 10.05 ± 0.0753 | 9.1 ± 0.205 |
| SAGGKEKVKIKIKIIDKKTNKVYEAEATFDKETGKVTITFPDGSKITFDLKTNKLYIEKDGKIIEIESAGGS [r16_743_TrROS_Hall] | 11.1 ± 1.13 | 14.8 ± 0.381 | 13.3 ± 1.17 |
| SAGGKEKYKIKIYNKKTGKEYEFEIPLDEIVKYDKKNKKIYIKLKNGKKLEFKSLEDIVKIEIEKLPSAGGS [r8_111_TrROS_Hall] | 9.8 ± 0.368 | 14.6 ± 0.234 | 13.1 ± 0.586 |
| SAGGKELILKLKIEVNGKTLTIEVKVSPEELKKLLDELKKLGIKEIEIESIEFDKETNEIKVKVKVKSAGGS [r8_219_TrROS_Hall] | 10.6 ± 0.264 | 17.1 ± 0.711 | 15.8 ± 0.628 |
| SAGGKEVKPIKGKVKITVNGKEIEVEVKKAKIVKNKDGSYYIFIEKDGKKLLIKLKNGKLVKIEEVPSAGGS [r16_721_TrROS_Hall] | 9.93 ± 0.406 | 16.3 ± 0.176 | 14.3 ± 0.372 |
| SAGGKEWYIKVSIEHRNPNNGEKRELSITIPVEGMSAEEALDIARELARHLPPENVKIEVDIVPLDDSAGGS [r16_774_TrROS] | 7.46 ± 0.213 | 8.7 ± 0.134 | 7.76 ± 0.711 |
| SAGGKEYTAKVVEIKKVGNKIFIKIKLSDGRELTIEIKTPEEAKKLKVGDTVKITVNEDGSLTIEVLSAGGS [r16_2_TrROS_Hall] | 17.7 ± 0.628 | 18.1 ± 0.268 | 17.9 ± 0.31 |
| SAGGKGKAVPFEIEFEAPGGKKVKAKITRIDLPDKPIYRVEVEVDGKKITYTATEDEAANLTFTPGGSAGGS [r8_257_TrMRF] | 6.21 ± 0.243 | 9.25 ± 0.146 | 8.03 ± 0.669 |
| SAGGKIEVEPEVELYRTPDGRLVARPKPVKVKITLKLTITNENGEKKTIEVEADTPEEALAALKALSSAGGS [r8_440_TrROS_Hall] | 4.3 ± 0.222 | 3.04 ± 0.837 | 4.04 ± 0.586 |
| SAGGKIIAEGEFELEDGYVVRVKVEYDEETGELRVEVEVFEVEVELPEVEVKREFSDEELTEEEKEASAGGS [r8_461_TrROS_Hall] | 3.75 ± 0.795 | 7.39 ± 0.711 | 5.83 ± 1.05 |
| SAGGKIKIKSVEVQPNPDGMRKVTLEFQDGGKEHKVEIYVHPGGIMISIPNGKTRTIPWDDLDDIKLSAGGS [r16_593_TrROS] | 2.18 ± 0.389 | 5.08 ± 0.628 | 4.24 ± 0.753 |

| Sequence | folding stability dG unfold [1] [kJ/mol] | folding stability dG unfold [2] [kJ/mol] | folding stability dG unfold [3] [kJ/mol] |
| --- | --- | --- | --- |
| SAGGKIKIQFNGQEFTITEFEIIEPQPNKGGGPYYRIRIKFPNGPMEIMIPPNMPPEIKPGDTFTIASAGGS [r16_638_TrROS] | 7.517 ± 0.0628 | 8.21 ± 0.134 | 8.07 ± 0.276 |
| SAGGKIPKNAKILEVEFDPETGYIRIKVEFYDKNGKLIKKAEITIPILPVPPLSPEDIEKLLKALASSAGGS [r16_697_TrMRF] | 13.2 ± 0.502 | 16.1 ± 0.711 | 15 ± 0.711 |
| SAGGKIPPGMKLEIEDINIEFYNNGWIKITVKMTIWAPDGKTMTMTMTIVIPIRPPPPPPNDPENNESAGGS [r8_90_TrROS] | 16.3 ± 1.88 | 19.9 ± 1 | 18 ± 1.84 |
| SAGGKKETVKVTLEIEVNGKKYKIELTKNKDGTVTIKITDKNGKKIEIEIPMSPEDVKKLLEELLKKLSAGG [r13_296_TrROS_Hall] | 9.08 ± 0.46 | 16.5 ± 0.393 | 14.9 ± 0.318 |
| SAGGKKFYVEVKINLKDKTIYLIKEVKPGNLEKLIKEIEKKGIKEAGIDEIKIFPKDGYIEIKGGEKSAGGS [r8_219_TrMRF] | 1.17 ± 0.255 | 4.95 ± 0.335 | 3.35 ± 0.418 |
| SAGGKKHYLVKVKATLTDKNGKKIAEVEFIFHFESPEELEEALKSIPSKYITEVKILSIEEIPEEEFSAGGS [r16_677_TrMRF] | 14.1 ± 0.753 | 15.3 ± 0.381 | 14.9 ± 0.753 |
| SAGGKKIEIKEGDTVKLKNATITLNGKTFKIKDAEAKVVKVDKKKKKVIIEITLKNGKKETFVFDIKSAGGS [r8_215_TrROS_Hall] | 10 ± 0.544 | 13.94 ± 0.109 | 13.2 ± 0.669 |
| SAGGKKKAKAYIVEKTTEKEGLKYYKVLIELGGKPLVFVIKSTSLEEVEEAIKKLAEELGVEVEIVPGSAGG [r13_750_TrMRF] | 15.8 ± 0.418 | 19.6 ± 0.372 | 18.9 ± 0.335 |
| SAGGKKKIKIIEKKKINGKTILKIEVDGKKIIIIKTPNKVYIFVIDKNGKKKVIEMSPEEALKKLIEKSAGG [r13_98_TrROS_Hall] | 8.7 ± 0.314 | 16.5 ± 0.176 | 15 ± 0.544 |
| SAGGKKKITITIEEVEELENGPLVYRVTIEVDGKTYEILIEADSLEEAKAAAEKLAEELNVEVTIEPVSAGG [r13_750_TrROS_Hall] | 10.7 ± 0.406 | 17.7 ± 0.201 | 16.1 ± 0.46 |
| SAGGKKKKKKPKIVRVKITLKNENGEEIEIDEAVILPDGTILIRDKKTGKIFEIKLDDITKIEIEEVSAGGS [r8_410_TrROS_Hall] | 8.35 ± 0.36 | 12.6 ± 0.41 | 11.7 ± 0.711 |
| SAGGKKKKLVIKDKKTNKYYEIENAKEIVKIEKVKGKDGKTYYVIYFKKTKKKIVIKTKEDLEKALKSAGGS [r8_206_TrROS_Hall] | 5.26 ± 1 | 4.94 ± 1.59 | 5.15 ± 1.21 |
| SAGGKKKKVKKIKVKVKIKLKNGEEVTITEAYVLPDGTVIIKVEVTKPDGSKETKTFTIPLKDIEIESAGGS [r16_498_TrROS_Hall] | 9.36 ± 0.314 | 15.5 ± 0.293 | 14 ± 0.46 |
| SAGGKKKLTLEIKIKVPKEEEEKAKEKAKKLAEELAKKLKEAGYKVKVTVEIDEETGEITVKVEVELPSAGG [r13_755_TrROS_Hall] | 11.9 ± 1.42 | 14.8 ± 2.3 | 14.4 ± 2.05 |
| SAGGKKKPKIRIKVEIDGKTVEVEVESPEELVEALKELGFEVEVVEVTEKTVVIKLKDGKLIRIEKESAGGS [r8_365_TrROS_Hall] | 7.99 ± 0.301 | 8.6 ± 0.109 | 8.43 ± 0.197 |
| SAGGKKKTIVLEVKVENLEEILKLAKEAAKAGDKVTVKVKLPDGEVYTVTVDVKTGKIVKVEKKKLPKSAGG [r13_873_TrROS_Hall] | 8.27 ± 0.406 | 13.8 ± 0.753 | 11.7 ± 0.837 |
| SAGGKKKVIEIKIEIKVPKEELKNMTKEEIAELLKKELEKKGIKIKKIEIVEIEIDGDTVTITIRIELSAGG [r13_432_TrROS_Hall] | 9.11 ± 0.628 | 12.2 ± 0.837 | 11.4 ± 1.26 |
| SAGGKKNEKKPIEIDGVFFNPETGKLVKIGPAKIIVPKNAKIELEAEVFDPVTGEVKKVKFKFELPAGSAGG [r13_206_TrMRF] | 2.29 ± 0.238 | 3.41 ± 0.393 | 2.92 ± 0.586 |
| SAGGKKNKPKPKVKVKILSVTANPDPNTPGLLSVSVPVLIESDDEEFALALAKELAKLPNVKVVVLGGSAGG [r13_606_TrMRF] | 5.61 ± 0.0962 | 5.93 ± 0.155 | 5.94 ± 0.201 |
| SAGGKKVEITIEASPEEAEELAKKLEELFPDVKVEVVEVKPEEPVRVTVRVEVKVELSPEELKKLLESAGGS [r16_180_TrROS_Hall] | 6.08 ± 0.356 | 5.73 ± 0.46 | 5.85 ± 0.586 |

From the supplement of paper PMC12764529
